For one assay, the target named is Recombinant Human IL-13 (human, UniProt P35225 35-146, limits assumed). The experiment in a line: cell-based or functional assay.
A further assay addresses T1, Recombinant Human IL-17 (human, UniProt Q16552 20-155, limits assumed).
T1 sequence (looked up): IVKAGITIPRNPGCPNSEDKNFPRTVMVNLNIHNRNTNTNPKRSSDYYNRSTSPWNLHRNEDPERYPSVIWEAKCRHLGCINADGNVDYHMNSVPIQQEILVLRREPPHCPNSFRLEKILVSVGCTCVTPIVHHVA
The experiment in a line: cell-based or functional assay.

Sequence of Recombinant Human IL-13 (P35225 35-146 limits assumed): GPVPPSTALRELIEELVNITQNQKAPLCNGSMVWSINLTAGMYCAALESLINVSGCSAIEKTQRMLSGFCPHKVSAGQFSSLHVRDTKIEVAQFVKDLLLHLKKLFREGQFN

B1: DVD2184 (bispecific antibody)
VH: EVQLVQSGAEVKKPGASVKVSCKASGYTFTSYWMHWVRQAPGQGLEWIGNINPKGGSNIYNEKFQGRVTMTRDTSISTAYMELSRLRSDDTAVYYCARLDYFGDSFDLWGQGTTVTVSSASTKGPEVQLVQSGAEVKKPGSSVKVSCKASGYTFTDYEIHWVRQAPGQGLEWMGVNDPESGGTFYNQKFDGRVTLTADESTSTAYMELSSLRSEDTAVYYCTRYSKWDSFDGMDYWGQGTTVTVSS
VL: DIQMTQSPSSLSASVGDRVTITCRASQGIRNYLNWYQQKPGKAPKLLIYYASNLEVGVPSRFSGSGSGTDYTLTISSLQPEDFATYYCQQDNRFPYTFGGGTKVEIKRTVAAPDIQMTQSPSSLSASVGDRVTITCRASSGIISYIDWFQQKPGKAPKRLIYATFDLASGVPSRFSGSGSGTDYTLTISSLQPEDFATYYCRQVGSYPETFGQGTKLEIKR
With B1, the “N-Terminal VD IL13 Neutralization Assay IC50” value with Recombinant Human IL-13 is 0.121 nM. The “C-Terminal VD IL17 Neutralization Assay IC50” value with Recombinant Human IL-17 worked out at 0.405 nM.

B2: DVD2149 (bispecific antibody)
VH: EVQLVQSGAEVKKPGSSVKVSCKASGYTFTDYEIHWVRQAPGQGLEWMGVNDPESGGTFYNQKFDGRVTLTADESTSTAYMELSSLRSEDTAVYYCTRYSKWDSFDGMDYWGQGTTVTVSSASTKGPEVTLRESGPGLVKPTQTLTLTCTLYGFSLSTSDMGVDWIRQPPGKGLEWLAHIWWDDVKRYNPALKSRLTISKDTSKNQVVLKLTSVDPVDTATYYCARTVSSGYIYYAMDYWGQGTLVTVSS
VL: DIQMTQSPSSLSASVGDRVTITCRASSGIISYIDWFQQKPGKAPKRLIYATFDLASGVPSRFSGSGSGTDYTLTISSLQPEDFATYYCRQVGSYPETFGQGTKLEIKRTVAAPDIQMTQSPSSLSASVGDRVTISCRASQDIRNYLNWYQQKPGKAPKLLIFYTSKLHSGVPSRFSGSGSGTDYTLTISSLQPEDIATYYCQQGLTPPLTFGGGTKVEIKR
Consider B2, for which the “C-Terminal VD IL13 Neutralization Assay IC50” value with Recombinant Human IL-13 amounted to 1.43 nM. Further, in the assay with Recombinant Human IL-17, the “N-Terminal VD IL17 Neutralization Assay IC50” value amounted to 0.0028 nM.

B3: DVD2169 (bispecific antibody)
VH: EVQLVQSGAEVKKPGSSVKVSCKASGYTFTDYEIHWVRQAPGQGLEWMGVNDPESGGTFYNQKFDGRVTLTADESTSTAYMELSSLRSEDTAVYYCTRYSKWDSFDGMDYWGQGTTVTVSSASTKGPEVQLVQSGAEVKKPGASVKVSCKASGYTFTTYGVSWVRQAPGQGLEWMGEIYPGNYNTYYNEKFRGRVTMTTDTSTSTAYMELRSLRSDDTAVYYCARWRTSYFSDYGYFDYWGQGTTVTVSS
VL: DIQMTQSPSSLSASVGDRVTITCRASSGIISYIDWFQQKPGKAPKRLIYATFDLASGVPSRFSGSGSGTDYTLTISSLQPEDFATYYCRQVGSYPETFGQGTKLEIKRTVAAPSVFIFPPDVVMTQSPLSLPVTLGQPASISCRSSQSLVHSHGNTYLHWYQQRPGQSPRLLIYTVSNRFSGVPDRFSGSGSGTDFTLKISRVEAEDVGVYYCSQSTHVPYTFGGGTKVEIKR
Turning to B3, the “C-Terminal VD IL13 Neutralization Assay IC50” value with Recombinant Human IL-13 amounted to 0.309 nM. For the same molecule, the “N-Terminal VD IL17 Neutralization Assay IC50” value with Recombinant Human IL-17 was 0.0021 nM.

B4: DVD2170 (bispecific antibody)
VH: EVQLVQSGAEVKKPGASVKVSCKASGYTFTTYGVSWVRQAPGQGLEWMGEIYPGNYNTYYNEKFRGRVTMTTDTSTSTAYMELRSLRSDDTAVYYCARWRTSYFSDYGYFDYWGQGTTVTVSSASTKGPSVFPLAPEVQLVQSGAEVKKPGSSVKVSCKASGYTFTDYEIHWVRQAPGQGLEWMGVNDPESGGTFYNQKFDGRVTLTADESTSTAYMELSSLRSEDTAVYYCTRYSKWDSFDGMDYWGQGTTVTVSS
VL: DVVMTQSPLSLPVTLGQPASISCRSSQSLVHSHGNTYLHWYQQRPGQSPRLLIYTVSNRFSGVPDRFSGSGSGTDFTLKISRVEAEDVGVYYCSQSTHVPYTFGGGTKVEIKRTVAAPDIQMTQSPSSLSASVGDRVTITCRASSGIISYIDWFQQKPGKAPKRLIYATFDLASGVPSRFSGSGSGTDYTLTISSLQPEDFATYYCRQVGSYPETFGQGTKLEIKR
Turning to B4, in the assay with Recombinant Human IL-13, the “N-Terminal VD IL13 Neutralization Assay IC50” value came out at 0.106 nM. Also, the “C-Terminal VD IL17 Neutralization Assay IC50” value with Recombinant Human IL-17 was found to be 0.0053 nM.

B5: DVD2176 (bispecific antibody)
VH: EVQLVQSGAEVKKPGASVKVSCKASGYTFTTYGVSWVRQAPGQGLEWMGEIYPGNYNTYYNEKFRGRVTMTTDTSTSTAYMELRSLRSDDTAVYYCARWRTSYFSDYGYFDYWGQGTTVTVSSASTKGPSVFPLAPEVQLVQSGAEVKKPGSSVKVSCKASGGSFGGYGIGWVRQAPGQGLEWMGGITPFFGFADYAQKFQGRVTITADESTTTAYMELSGLTSDDTAVYYCARDPNEFWNGYYSTHDFDSWGQGTTVTVSS
VL: DVVMTQSPLSLPVTLGQPASISCRSSQSLVHSHGNTYLHWYQQRPGQSPRLLIYTVSNRFSGVPDRFSGSGSGTDFTLKISRVEAEDVGVYYCSQSTHVPYTFGGGTKVEIKRTVAAPEIVLTQSPDFQSVTPKEKVTITCRASQDIGSELHWYQQKPDQPPKLLIKYASHSTSGVPSRFSGSGSGTDFTLTINGLEAEDAGTYYCHQTDSLPYTFGPGTKVDIKR
With B5, in the assay with Recombinant Human IL-13, the “N-Terminal VD IL13 Neutralization Assay IC50” value came out at 0.106 nM. Further, the “C-Terminal VD IL17 Neutralization Assay IC50” value with Recombinant Human IL-17 was 0.116 nM.

B6: DVD2182 (bispecific antibody)
VH: EVQLVQSGAEVKKPGASVKVSCKASGYTFTTYGVSWVRQAPGQGLEWMGEIYPGNYNTYYNEKFRGRVTMTTDTSTSTAYMELRSLRSDDTAVYYCARWRTSYFSDYGYFDYWGQGTTVTVSSASTKGPSVFPLAPEVQLVQSGAEVKKPGESVKISCKASGGSFRSYGISWVRQAPGQGLEWMGGITHFFGITDYAQKFQGRVTITADESTTTAYMELSGLTSDDTAVYYCAREPNDFWNGYYDTHDFDSWGQGTTVTVSS
VL: DVVMTQSPLSLPVTLGQPASISCRSSQSLVHSHGNTYLHWYQQRPGQSPRLLIYTVSNRFSGVPDRFSGSGSGTDFTLKISRVEAEDVGVYYCSQSTHVPYTFGGGTKVEIKRTVAAPEIVLTQSPDFQSVTPKEKVTITCRASQNIGSELHWYQQKPDQSPKLLIKYASHSISGVPSRFSGSGSGTDFTLTINGLEAEDAATYYCHQSDTLPHTFGQGTKVDIKR
For the molecule B6, in the assay with Recombinant Human IL-13, the “N-Terminal VD IL13 Neutralization Assay IC50” value was 0.077 nM. For the same molecule, in the assay with Recombinant Human IL-17, the “C-Terminal VD IL17 Neutralization Assay IC50” value turned out to be 0.266 nM.

B7: DVD2178 (bispecific antibody)
VH: EVQLVQSGAEVKKPGASVKVSCKASGYTFTTYGVSWVRQAPGQGLEWMGEIYPGNYNTYYNEKFRGRVTMTTDTSTSTAYMELRSLRSDDTAVYYCARWRTSYFSDYGYFDYWGQGTTVTVSSASTKGPEVQLVQSGAEVKKPGESVKISCKASGGSFRSYGISWVRQAPGQGLEWMGGITHFFGITDYAQKFQGRVTITADESTTTAYMELSGLTSDDTAVYYCAREPNDFWNGYYDTHDFDSWGQGTTVTVSS
VL: DVVMTQSPLSLPVTLGQPASISCRSSQSLVHSHGNTYLHWYQQRPGQSPRLLIYTVSNRFSGVPDRFSGSGSGTDFTLKISRVEAEDVGVYYCSQSTHVPYTFGGGTKVEIKRTVAAPEIVLTQSPDFQSVTPKEKVTITCRASQNIGSELHWYQQKPDQSPKLLIKYASHSISGVPSRFSGSGSGTDFTLTINGLEAEDAATYYCHQSDTLPHTFGQGTKVDIKR
Regarding B7, the “N-Terminal VD IL13 Neutralization Assay IC50” value with Recombinant Human IL-13 was found to be 0.088 nM. The “C-Terminal VD IL17 Neutralization Assay IC50” value in the assay with Recombinant Human IL-17 stood at 0.691 nM.

B8: DVD2180 (bispecific antibody)
VH: EVQLVQSGAEVKKPGASVKVSCKASGYTFTTYGVSWVRQAPGQGLEWMGEIYPGNYNTYYNEKFRGRVTMTTDTSTSTAYMELRSLRSDDTAVYYCARWRTSYFSDYGYFDYWGQGTTVTVSSASTKGPEVQLVQSGAEVKKPGESVKISCKASGGSFRSYGISWVRQAPGQGLEWMGGITHFFGITDYAQKFQGRVTITADESTTTAYMELSGLTSDDTAVYYCAREPNDFWNGYYDTHDFDSWGQGTTVTVSS
VL: DVVMTQSPLSLPVTLGQPASISCRSSQSLVHSHGNTYLHWYQQRPGQSPRLLIYTVSNRFSGVPDRFSGSGSGTDFTLKISRVEAEDVGVYYCSQSTHVPYTFGGGTKVEIKRTVAAPSVFIFPPEIVLTQSPDFQSVTPKEKVTITCRASQNIGSELHWYQQKPDQSPKLLIKYASHSISGVPSRFSGSGSGTDFTLTINGLEAEDAATYYCHQSDTLPHTFGQGTKVDIKR
For the molecule B8, in the assay with Recombinant Human IL-13, the “N-Terminal VD IL13 Neutralization Assay IC50” value was determined as 0.091 nM. Moreover, the “C-Terminal VD IL17 Neutralization Assay IC50” value in the assay with Recombinant Human IL-17 is 0.0567 nM.

B9: DVD2148 (bispecific antibody)
VH: EVTLRESGPGLVKPTQTLTLTCTLYGFSLSTSDMGVDWIRQPPGKGLEWLAHIWWDDVKRYNPALKSRLTISKDTSKNQVVLKLTSVDPVDTATYYCARTVSSGYIYYAMDYWGQGTLVTVSSASTKGPEVQLVQSGAEVKKPGSSVKVSCKASGYTFTDYEIHWVRQAPGQGLEWMGVNDPESGGTFYNQKFDGRVTLTADESTSTAYMELSSLRSEDTAVYYCTRYSKWDSFDGMDYWGQGTTVTVSS
VL: DIQMTQSPSSLSASVGDRVTISCRASQDIRNYLNWYQQKPGKAPKLLIFYTSKLHSGVPSRFSGSGSGTDYTLTISSLQPEDIATYYCQQGLTPPLTFGGGTKVEIKRTVAAPDIQMTQSPSSLSASVGDRVTITCRASSGIISYIDWFQQKPGKAPKRLIYATFDLASGVPSRFSGSGSGTDYTLTISSLQPEDFATYYCRQVGSYPETFGQGTKLEIKR
Turning to B9, the “N-Terminal VD IL13 Neutralization Assay IC50” value in the assay with Recombinant Human IL-13 stood at 0.054 nM. The “C-Terminal VD IL17 Neutralization Assay IC50” value with Recombinant Human IL-17 turned out to be 0.0116 nM.

B10: DVD2150 (bispecific antibody)
VH: EVTLRESGPGLVKPTQTLTLTCTLYGFSLSTSDMGVDWIRQPPGKGLEWLAHIWWDDVKRYNPALKSRLTISKDTSKNQVVLKLTSVDPVDTATYYCARTVSSGYIYYAMDYWGQGTLVTVSSASTKGPEVQLVQSGAEVKKPGSSVKVSCKASGYTFTDYEIHWVRQAPGQGLEWMGVNDPESGGTFYNQKFDGRVTLTADESTSTAYMELSSLRSEDTAVYYCTRYSKWDSFDGMDYWGQGTTVTVSS
VL: DIQMTQSPSSLSASVGDRVTISCRASQDIRNYLNWYQQKPGKAPKLLIFYTSKLHSGVPSRFSGSGSGTDYTLTISSLQPEDIATYYCQQGLTPPLTFGGGTKVEIKRTVAAPSVFIFPPDIQMTQSPSSLSASVGDRVTITCRASSGIISYIDWFQQKPGKAPKRLIYATFDLASGVPSRFSGSGSGTDYTLTISSLQPEDFATYYCRQVGSYPETFGQGTKLEIKR
For B10, the “N-Terminal VD IL13 Neutralization Assay IC50” value with Recombinant Human IL-13 stood at 0.099 nM. The “C-Terminal VD IL17 Neutralization Assay IC50” value in the assay with Recombinant Human IL-17 was found to be 0.004 nM.

Values taken from patent US20130236458A1 (AbbVie / Abbott, published 2013).
